Experimental data: publication PMC4673316

Target: ClpP1/P2 heptameric ring 3ClpP1 + 4ClpP2 (Synechococcus elongatus) (UniProt P54415)
Test: native MS; nano-ESI Q-ToF, 200 mM ammonium acetate with 2 mM TEA (weakly denaturing)

stoichiometry N: 2
Substance: ClpP1/P2 heptameric ring 3ClpP1 + 4ClpP2 (from UniProt P54415 1-197; O34125 1-240) (complex)
